The record followed here is US20210269492A1.

This assay has as its target Piromyces ScaA fragment (Piromyces). In words: SPR equilibrium analysis.

Broadly, the Kd is the free concentration of one partner at which half of the binding sites on the other are occupied at equilibrium, for simple one-to-one binding. The low end stands for higher affinity, the high end for lower affinity. W28F dockerin mutant showed a Kd of 2 µM.
The figure for P. finnis single dockerin domain is 0.7 µM.
